What was measured:
[1] = target: PfNPM A3 (residues 1-170, up to A3 acidic tract) (Plasmodium falciparum) (UniProt C0H4U4); assay: pull-down
[2] = target: PfNPM A1 (residues 1-110, up to A1 acidic tract) (Plasmodium falciparum) (UniProt C0H4U4); assay: pull-down

## assembled H3/H4 tetramer (from UniProt P84233 1-136; P62799 1-103) (complex)
[1]
  highest NaCl concentration at which the complex was stable: 600 mM NaCl
[2]
  highest NaCl concentration at which the complex was stable: 600 mM NaCl
